Biological target: T1, Myc tagged TRPC3 (UniProt Q13507-3 1-848, limits assumed)
T1 construct: Expressed in HEK293T cells and tested in cell lysates; also called Myc-TRPC3
T1 sequence (looked up): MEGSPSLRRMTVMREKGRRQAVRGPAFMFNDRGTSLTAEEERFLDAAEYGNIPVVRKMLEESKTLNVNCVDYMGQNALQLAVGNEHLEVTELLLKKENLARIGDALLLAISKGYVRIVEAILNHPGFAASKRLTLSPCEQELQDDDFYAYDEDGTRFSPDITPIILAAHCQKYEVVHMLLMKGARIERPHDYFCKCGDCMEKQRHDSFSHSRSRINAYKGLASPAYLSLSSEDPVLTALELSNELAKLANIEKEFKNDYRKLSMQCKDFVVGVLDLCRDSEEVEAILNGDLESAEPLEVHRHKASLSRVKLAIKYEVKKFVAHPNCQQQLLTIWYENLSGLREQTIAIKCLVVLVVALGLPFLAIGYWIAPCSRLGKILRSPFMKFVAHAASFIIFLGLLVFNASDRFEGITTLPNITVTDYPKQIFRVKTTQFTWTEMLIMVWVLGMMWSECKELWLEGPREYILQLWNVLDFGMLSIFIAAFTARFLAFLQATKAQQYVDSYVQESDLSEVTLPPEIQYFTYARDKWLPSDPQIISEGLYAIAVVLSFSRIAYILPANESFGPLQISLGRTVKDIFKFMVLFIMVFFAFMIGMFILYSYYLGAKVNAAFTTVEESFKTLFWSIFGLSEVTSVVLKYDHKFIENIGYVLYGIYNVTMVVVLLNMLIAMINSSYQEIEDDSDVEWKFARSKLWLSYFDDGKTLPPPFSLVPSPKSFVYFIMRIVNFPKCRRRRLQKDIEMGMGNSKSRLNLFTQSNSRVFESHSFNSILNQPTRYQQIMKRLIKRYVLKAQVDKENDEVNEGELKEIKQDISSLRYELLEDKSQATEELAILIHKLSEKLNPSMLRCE
Assay: co-immunoprecipitation from lysates of HEK293T cells cotransfected with V5-SPLUNC1 and Myc-TRPC3
Protocol: Immunoprecipitation analysis was performed using cell lysates from HEK293T cells cotransfected with V5-SPLUNC1 and Myc-TRPC3. Data represents an n=3 blots.
Antibodies, immunoprecipitation, and immunoblot analysis: Rabbit anti-Orai1, anti-HA epitope (Santa Cruz), anti-GFP, anti-phospho-myosin light chain, anti-total myosin light chain, anti-GAPDH (glyceraldehyde-3-phosphate dehydrogenase) (Cell Signaling Technology); mouse anti-V5 epitope (Life Technologies), were purchased from commercial sources. To detect protein expression in total cell lysates, cells were lysed in Pierce® IP lysis buffer with 25 mM Tris-HCl pH 7.4, 150 mM NaCl, 1% NP-40, 1 mM EDTA, 5% glycerol, followed by SDS-polyacrylamide electrophoresis and immunoblot.

B1: V5-SPLUNC1 (other, not shown: small tags and cut ends)
chain: QFGGLPVPLDQTLPLNVNPALPLSPTGLAGSLTNALSNGLLSGGLLGILENLPLLDILKPGGGTSGGLLGGLLGKVTSVIPGLNNIIDIKVTDPQLLELGLVQSPDGHRLYVTIPLGIKLQVNTPLVGASLLRLAVKLDITAEILAVRDKQERIHLVLGDCTHSPGSLQISLLDGLGPLPIQGLLDSLTGILNKVLPELVQGNVCPLVNEVLRGLDITLVHDIVNMLIHGLQFVIKV
notes: Expressed in HEK293T cells and tested in cell lysates; The tag is placed first only because the name is printed that way; also called pcDNA3.1(+)-V5-SPLUNC1
B1: no binding.

Reference: US20190062386A1 (UNIVERSITY OF NORTH CAROLINA AT CHAPEL HILL, published 2019)
